The source of these data is patent US20240368668A1, “SUBSTRATES AND BIOMARKERS OF ADAMTS7” (The Broad Institute, Inc., priority 2021, published 2024).

The target in the experiment is T1, mouse ADAMTS7 (Mus musculus, UniProt Q68SA9, E373Q).
T1 construct: Full-length mouse Adamts7 1-1857 (Uniprot Q68SA9, WT or E373Q catalytic mutant); expressed in transfected cells; host or cells: Human Coronary Artery Smooth Muscle Cells (HCA-SMC, Lonza), adenovirus 50 MOI
T1 sequence (Q68SA9 221-1657 E373Q): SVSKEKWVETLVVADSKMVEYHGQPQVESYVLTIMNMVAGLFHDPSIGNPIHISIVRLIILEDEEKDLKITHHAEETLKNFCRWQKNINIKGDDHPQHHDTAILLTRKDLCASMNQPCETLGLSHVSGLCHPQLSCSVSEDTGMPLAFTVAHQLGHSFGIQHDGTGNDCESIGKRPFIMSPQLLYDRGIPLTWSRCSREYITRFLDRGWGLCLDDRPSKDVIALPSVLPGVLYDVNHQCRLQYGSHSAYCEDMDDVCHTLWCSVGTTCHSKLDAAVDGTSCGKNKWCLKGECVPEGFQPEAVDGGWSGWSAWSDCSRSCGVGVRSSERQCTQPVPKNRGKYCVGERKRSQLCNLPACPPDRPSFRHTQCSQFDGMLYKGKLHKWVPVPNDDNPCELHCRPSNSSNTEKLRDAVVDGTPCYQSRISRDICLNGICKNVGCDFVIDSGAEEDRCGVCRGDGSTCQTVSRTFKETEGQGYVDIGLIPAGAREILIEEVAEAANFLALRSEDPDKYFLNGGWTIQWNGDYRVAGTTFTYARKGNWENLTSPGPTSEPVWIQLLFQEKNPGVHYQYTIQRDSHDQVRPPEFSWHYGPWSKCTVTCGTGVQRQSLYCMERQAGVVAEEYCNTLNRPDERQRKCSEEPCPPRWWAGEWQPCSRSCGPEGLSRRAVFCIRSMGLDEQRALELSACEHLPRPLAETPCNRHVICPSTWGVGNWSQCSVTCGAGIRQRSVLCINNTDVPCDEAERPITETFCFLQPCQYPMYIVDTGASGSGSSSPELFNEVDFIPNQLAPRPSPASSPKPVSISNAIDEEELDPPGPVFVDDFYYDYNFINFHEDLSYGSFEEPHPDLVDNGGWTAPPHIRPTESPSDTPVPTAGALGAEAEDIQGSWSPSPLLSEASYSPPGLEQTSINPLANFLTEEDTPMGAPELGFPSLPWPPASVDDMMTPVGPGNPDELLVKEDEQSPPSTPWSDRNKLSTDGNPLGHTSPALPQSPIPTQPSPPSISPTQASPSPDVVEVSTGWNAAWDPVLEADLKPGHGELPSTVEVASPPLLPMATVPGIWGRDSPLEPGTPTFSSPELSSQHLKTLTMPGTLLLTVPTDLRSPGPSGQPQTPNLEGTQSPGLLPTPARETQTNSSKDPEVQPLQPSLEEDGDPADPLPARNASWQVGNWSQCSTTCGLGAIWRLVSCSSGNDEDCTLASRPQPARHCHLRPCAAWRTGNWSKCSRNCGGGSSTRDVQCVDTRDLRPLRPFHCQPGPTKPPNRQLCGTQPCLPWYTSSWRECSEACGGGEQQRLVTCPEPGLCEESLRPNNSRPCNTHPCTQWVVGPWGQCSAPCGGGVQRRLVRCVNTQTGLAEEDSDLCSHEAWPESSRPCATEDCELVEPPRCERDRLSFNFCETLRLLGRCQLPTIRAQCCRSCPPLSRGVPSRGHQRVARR
Description: TMT10 TAILS N-terminomics, HUVEC experiment (process replicates, trypsin/AspN digest). Type of experiment: cell-based, human. The following applies: HUVEC TAILS HC; log fold change of N-terminal peptide, Ad-mADAMTS7 EQ over Luc. The method, boiled down: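 Full-length mouse ADAMTS7 (WT or E373Q mutant, C-terminal 3xFLAG) or luciferase was transduced via adenovirus, 50 MOI, into HCA-SMC (SMC1, SMC2) or HUVEC. SMC1: pooled media, technical triplicates 400 ug; SMC2: process triplicates 300 ug; HUVEC: process triplicates 200 ug, bFGF2 10 ng/ml.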
For “COL18A1_1505 (LQPPVVQLHDSNPYPR; listed as Homo sapiens)”, the logFC.mEQ.over.Luc was −0.84.

The substance “LTBP2_79 (VAGLQPVER; listed as Homo sapiens)” had a logFC.mEQ.over.Luc of −0.38.

In turn, “LTBP2_250 (SAAGEGTLAR; listed as Homo sapiens)” came in with a logFC.mEQ.over.Luc of 0.12.

“LTBP2_502 (LVENSVETRPPPWLPASPGHSLW; listed as Homo sapiens)”: the logFC.mEQ.over.Luc is given as −0.22.

In turn, “LTBP3_208 (FLVPLGPGQISA; listed as Homo sapiens)” gave a logFC.mEQ.over.Luc of −0.60.

Consider “MAP4_815 (AVASTGPSSR; listed as Homo sapiens)”, for which the logFC.mEQ.over.Luc worked out at 0.36.

In the case of “MAP4_816 (VASTGPSSR; listed as Homo sapiens)”, the logFC.mEQ.over.Luc is 0.08.

For the substance “NID1_360 (FHQQHPQVI; listed as Homo sapiens)”, the logFC.mEQ.over.Luc is reported as −0.30.

Substance “NID2_291 (HSSVPLGR; listed as Homo sapiens)” returned a logFC.mEQ.over.Luc of −0.10.

“NUCB1_317 (FLASTQR; listed as Homo sapiens)” yielded a logFC.mEQ.over.Luc of 0.06.

In turn, “NUCB1_389 (LQQAVLHMEQR; listed as Homo sapiens)” had a logFC.mEQ.over.Luc of −0.22.

For “SERBP1_56 (QAAAQTNSNAAGKQLR; listed as Homo sapiens)”, the logFC.mEQ.over.Luc was −0.20.

In turn, “SPOCK1_27 (LAGGAGPNHGNFL; listed as Homo sapiens)” registered a logFC.mEQ.over.Luc of −0.17.

In the case of “SRGN_59 (LLPGESNKIPR; listed as Homo sapiens)”, the logFC.mEQ.over.Luc is −0.13.

Substance “THBS2_290 (LSENLKR; listed as Homo sapiens)” displayed a logFC.mEQ.over.Luc of 0.64.
